According to publication PMC5497592 (Biochemistry, 2011):

Target: the molecule itself
Assay: cross-linking

B1: HpUreI, the urea channel from Helicobacter pylori (natural protein)
chain: MLGLVLLYVGIVLISNGICGLTKVDPKSTAVMNFFVGGLSIICNIVVITYSALHPTAPVEGAEDIAQVSHHLTSFYGPATGLLFGFTYLYAAINHTFGLDWRPYSWYSLFVAINTIPAAILSHYSDMLDDHKVLGITEGDWWAIIWLAWGVLWLTAFIENILKIPLGKFTPWLAIIEGILTAWIPAWLLFIQHWV
stoichiometry N: 3
